PMC4001850 (Journal of Alzheimer's disease : JAD, 2011)
Where no end group is shown, it is not given here.

Biological target: the molecule itself
Test: SEC

Protein	stoichiometry N
eAβPP_(290-624), His-Patch thioredoxin fusion (52-kDa) (domain or fragment, human, UniProt P05067-4 290-624, looked up) PTTAASTPDAVDKYLETPGDENEHAHFQKAKERLEAKHRERMSQVMREWEEAERQAKNLPKADKKAVIQHFQEKVESLEQEAANERQQLVETHMARVEAMLNDRRRLALENYITALQAVPPRPRHVFNMLKKYVRAEQKDRQHTLKHFEHVRMVDPKKAAQIRSQVMTHLRVIYERMNQSLSLLYNVPAVAEEIQDEVDELLQKEQNYSDDVLANMISEPRISYGNDALMPSLTETKTTVELLPVNGEFSLDDLQPWHSFGADSVPANTENEVEPVDARPAADRGLTTRPGSGLTNIKTEEISEVKMDAEFRHDSGYEVHHQKLVFFAEDVGSNK	~2
LTTRPGSGLTNIKTEEISEVKMDAEFRHDSGYEVHHQKLVFFAEDVGSNK (domain or fragment, human, UniProt P05067-4 575-624, looked up, also: His-Patch thioredoxin fusion (20 kDa), side not given here) [eAβPP_(575-624), His-Patch thioredoxin fusion (20-kDa)]	~2
